# What was measured:
# [1] = molecular target: T1, hmm.hTfRC (REGN2431), human transferrin receptor extracellular domain with hexahistidine-myc-myc tag (human, UniProt P02786 89-760); assay: SPR (Biacore), mAb captured on anti-human Fc, 100 nM hTFR-mmh, 25 C
# T1 construct: Monomeric recombinant protein, 79210 g/mol; also called hTFR-mmh; His-myc-myc-hTFRC ecto
# [2] = molecular target: T2, mf TFRC ecto-mmh (REGN2054), monomeric monkey (cyno) Tfrc ectodomain with C-terminal myc-myc-hexahistidine tag (monkey (cyno), Macaca fascicularis, UniProt H9EXL1 89-760); assay: SPR (Biacore), mAb from CHO supernatant captured on anti-human Fc, 100 nM mfTfR-mmh injected, 25 C
# T2 construct: range 89-760; also called mfTfR-mmh; mfTFR-mmh
# T2 sequence (chain, as listed by the source): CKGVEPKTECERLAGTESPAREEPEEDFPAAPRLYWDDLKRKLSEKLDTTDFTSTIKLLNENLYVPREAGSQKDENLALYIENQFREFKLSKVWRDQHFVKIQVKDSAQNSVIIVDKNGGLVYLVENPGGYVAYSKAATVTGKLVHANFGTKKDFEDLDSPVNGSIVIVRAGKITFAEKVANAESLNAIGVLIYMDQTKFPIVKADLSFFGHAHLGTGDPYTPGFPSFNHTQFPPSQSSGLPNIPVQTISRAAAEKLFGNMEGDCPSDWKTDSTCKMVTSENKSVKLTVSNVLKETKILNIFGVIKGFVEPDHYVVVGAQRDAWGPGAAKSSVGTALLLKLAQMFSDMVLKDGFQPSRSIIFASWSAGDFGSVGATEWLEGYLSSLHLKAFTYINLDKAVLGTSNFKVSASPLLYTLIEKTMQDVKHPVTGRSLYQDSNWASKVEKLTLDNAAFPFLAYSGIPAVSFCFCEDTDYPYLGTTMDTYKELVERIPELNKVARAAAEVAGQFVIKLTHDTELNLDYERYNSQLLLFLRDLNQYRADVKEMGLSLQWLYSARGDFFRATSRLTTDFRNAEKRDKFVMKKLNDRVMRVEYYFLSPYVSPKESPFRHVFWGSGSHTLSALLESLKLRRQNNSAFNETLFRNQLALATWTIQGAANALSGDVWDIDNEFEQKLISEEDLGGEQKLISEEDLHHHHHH
# Experimental: (§1) Biacore binding kinetics assays were conducted for the interaction of 32 anti-human TfR IgG1 monoclonal antibodies from CHO supernatants with TfR reagents at 25° C.
# (§2) Equilibrium dissociation constants (KD) for the interaction of anti-TfR monoclonal antibodies with human and fascicularis monkey TfR ecto domain recombinant proteins were determined using a real-time surface plasmon resonance (SPR) based Biacore S200 biosensor. All binding studies were performed in 10 mM HEPES, 150 mM NaCl, 3 mM EDTA, and 0.05% v/v surfactant Tween-20, pH 7.4 (HBS-EP) running buffer at 37° C. The Biacore CM5 sensor surface was first derivatized by amine coupling with a monoclonal mouse anti-human Fc antibody (REGN2567) followed by a step to capture anti-TfR monoclonal antibodies in CHO conditioned media. […] The dissociation of TfR bound to anti-TfR monoclonal antibodies was monitored for 3 minutes in HBS-EP running buffer. At the end of each cycle, the anti-TfR monoclonal antibodies capture surface was regenerated using a 12-sec injection of 20 mM H₃PO₄. The association rate (ka) and dissociation rate (kd) were determined by fitting the real-time binding sensorgrams to a 1:1 binding model with mass transport limitation using Scrubber 2.0 c software. The dissociation equilibrium constant (KD) and dissociative half-life (t½) were calculated from the kinetic rate constants as: […]
# [3] = molecular target: T2, mf TFRC ecto-mmh (REGN2054), monomeric …; assay: SPR (Biacore), mAb captured on anti-human Fc, 100 nM mfTfR-mmh, 25 C
# [4] = molecular target: T1, hmm.hTfRC (REGN2431), human transferrin …; assay: SPR (Biacore), mAb captured on anti-human Fc, 100 nM hTFR-mmh, 25 C; kd fixed at 1.00E-05
# Experimental: as §2, with “All binding studies were performed in 10 mM HEPES, 150 mM NaCl, 3 mM EDTA, and 0.05% v/v surfactant Tween-20, pH 7.4 (HBS-EP) running buffer at 37° C.” left out
# [5] = molecular target: T3, REGN2054 (mf TFRC ecto-mmh); monomeric monkey (cyno) Tfrc ectodomain, amino acids C89-F760, with C-terminal … (cynomolgus monkey (Macaca fascicularis), UniProt H9EXL1 89-760 (rhesus entry)); assay: SPR (Biacore), mAb from CHO supernatant captured on anti-human Fc, 100 nM mfTFR-mmh injected, 25 C
# T3 construct: range 89-760; also called mfTFR-mmh; mfTfR-mmh
# T3 sequence (chain, as listed by the source): as above
# Experimental: as §1, §2
# [6] = molecular target: T4, REGN2431 (hmm.hTfRC); monomeric human Tfrc ectodomain, amino acids C89-F760, with N-terminal … (human, UniProt P02786 89-760); assay: SPR (Biacore), mAb from CHO supernatant captured on anti-human Fc, 100 nM hTfR-mmh injected, 25 C
# T4 construct: also called hTfR-mmh; hTFR-mmh
# T4 sequence (P02786 other isoform, or with tags, fused parts or gaps): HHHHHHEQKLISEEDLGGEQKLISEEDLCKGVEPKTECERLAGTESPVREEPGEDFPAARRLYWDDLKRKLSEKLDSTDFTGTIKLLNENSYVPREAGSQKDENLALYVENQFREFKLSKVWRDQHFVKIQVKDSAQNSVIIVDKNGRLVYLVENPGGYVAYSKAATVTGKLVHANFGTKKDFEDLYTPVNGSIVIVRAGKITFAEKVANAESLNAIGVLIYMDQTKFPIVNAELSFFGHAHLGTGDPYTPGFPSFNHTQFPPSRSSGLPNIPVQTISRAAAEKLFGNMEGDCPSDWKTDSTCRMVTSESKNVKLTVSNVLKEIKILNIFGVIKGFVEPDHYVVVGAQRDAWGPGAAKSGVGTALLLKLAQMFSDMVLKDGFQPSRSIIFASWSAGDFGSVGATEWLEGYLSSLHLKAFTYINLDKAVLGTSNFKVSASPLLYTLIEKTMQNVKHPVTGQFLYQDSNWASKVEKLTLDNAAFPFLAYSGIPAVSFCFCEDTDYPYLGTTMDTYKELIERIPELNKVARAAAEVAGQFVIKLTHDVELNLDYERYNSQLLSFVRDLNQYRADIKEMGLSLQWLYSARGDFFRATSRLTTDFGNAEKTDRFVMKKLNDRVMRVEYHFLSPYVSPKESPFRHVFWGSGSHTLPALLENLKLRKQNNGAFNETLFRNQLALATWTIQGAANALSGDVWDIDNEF
# Experimental: as §1, §2
# T1 sequence (P02786 other isoform, or with tags, fused parts or gaps): as above
100 nM Ag Bound (RU) [1],Kd [1],koff [1],kon [1],t½ [1],binding result [2],100 nM Ag Bound (RU) [3],Kd [4],Kd [3],koff [3],kon [3],t½ [3],Kd [5],Kd [6],Binder
1150 RU,0.67 nM,0.000116 s⁻¹,173000 M⁻¹ s⁻¹,1.66 h,no binding (tested: 100 nM),4 RU,,,,,,,,"12841B (antibody, human IgG1, kappa, V domains shown, Tested as bivalent human IgG1 from CHO primary supernatant; also called H1H12841B; REGN17511) VH: EVQLVESGGGLVQPGGSLRLSCAASGFTFSNYWMNWVRQAPGKGLEWVANIKEDGGKKLYVDSVKGRFTISRDNAKNSLFLQMNSLRAEDTAVYYCAREDTTLVVDYYYYGMDVWGQGTTVTVSS VL: not shown"
1100 RU,1.18 nM,0.000199 s⁻¹,168000 M⁻¹ s⁻¹,0.965 h,no binding (tested: 100 nM),13 RU,,,,,,,,"12845B (antibody, human IgG1, kappa, V domains shown, Tested as bivalent human IgG1 from CHO primary supernatant; also called H1H12845B; REGN17513) VH: EVQLVESGGGLVQPGGSLRLSCAASGFTVSNYEMNWVRQAPGKGLEWVSYISSSTSNIYYADSVKGRFTISRDNAENSLYLQMNSLRVEDTAVYYCVRDGIVVVPVGRGYYYYGLDVWGQGTTVTVSS VL: not shown"
660 RU,0.448 nM,5.33e-05 s⁻¹,118000 M⁻¹ s⁻¹,3.62 h,no binding (tested: 100 nM),11 RU,,,,,,,,"12839B (antibody, human IgG1, kappa, V domains shown, Tested as bivalent human IgG1 from CHO primary supernatant; also called H1H12839B; REGN17510) VH: QVQLVESGGGVVQPGRSLRLSCAASGFPFSNYVMYWVRQAPGKGLEWVALIFFDGKKNYHADSVKGRFTITRDNSKNMLYLQMNSLRPEDAAVYYCAKIHCPNGVCYKGYYGMDVWGQGTTVTVSS VL: not shown"
883 RU,,< 1e-05 s⁻¹,122000 M⁻¹ s⁻¹,> 19.2 h,,364 RU,≤ 0.0823 nM,1.16 nM,7.13e-05 s⁻¹,61000 M⁻¹ s⁻¹,2.7 h,,,"12795B (antibody, human IgG1, kappa, V domains shown, Tested as bivalent human IgG1 from CHO primary supernatant) VH: EVQLVESGGGLVQPGGSLRLSCATSGFTFTSYDMKWVRQAPGLGLEWVSAISGSGGNTYYADSVKGRFTISRDNSRNTLYLQMNSLRAEDTAVYYCTRSHDFGAFDYFDYWGQGTLVTVSS VL: DIQMTQSPSSLSASVGDRVTITCRASQGIRDHFGWYQQKPGKAPKRLIYAASSLHSGVPSRFSGSGSGTEFTLTISSLQPEDFATYYCLQYDTYPLTFGGGTKVEIKR"
,,,,,,,,,,,,1.16 nM,,"12795B anti-human TfR IgG1 monoclonal antibody (antibody, V domains shown, Tested as bivalent IgG1 from CHO primary supernatant) VH: EVQLVESGGGLVQPGGSLRLSCATSGFTFTSYDMKWVRQAPGLGLEWVSAISGSGGNTYYADSVKGRFTISRDNSRNTLYLQMNSLRAEDTAVYYCTRSHDFGAFDYFDYWGQGTLVTVSS VL: DIQMTQSPSSLSASVGDRVTITCRASQGIRDHFGWYQQKPGKAPKRLIYAASSLHSGVPSRFSGSGSGTEFTLTISSLQPEDFATYYCLQYDTYPLTFGGGTKVEIKR"
,,,,,,,,,,,,,0.0656 nM,"31863B anti-human TfR IgG1 monoclonal antibody (antibody, V domains shown, Tested as bivalent IgG1 from CHO primary supernatant) VH: EVQLVESGGGLVQPGGSLRLSCAASGFTFNSYAMTWVRQAPGKGLEWVSFIGGSTGNTYYAGSVKGRFTISSDNSKKTLYLQMNSLRAEDTAVYYCAKGGAARRMEYFQHWGQGTLVTVSS VL: DIQMTQSPSSLSASIGDRVTITCRASQGISNYLAWYQQKPGKVPKLLIYAASTLQSGVPSRFSGSGSGTDFTLTISSLQPEDVATYYCQNHNSVPLTFGGGTKVEIKR"
1080 RU,,< 1e-05 s⁻¹,152000 M⁻¹ s⁻¹,> 19.2 h,,145 RU,≤ 0.0656 nM,18.3 nM,0.00298 s⁻¹,163000 M⁻¹ s⁻¹,0.065 h,,,"31863B (antibody, human IgG1, kappa, V domains shown, Tested as bivalent human IgG1 from CHO primary supernatant) VH: EVQLVESGGGLVQPGGSLRLSCAASGFTFNSYAMTWVRQAPGKGLEWVSFIGGSTGNTYYAGSVKGRFTISSDNSKKTLYLQMNSLRAEDTAVYYCAKGGAARRMEYFQHWGQGTLVTVSS VL: DIQMTQSPSSLSASIGDRVTITCRASQGISNYLAWYQQKPGKVPKLLIYAASTLQSGVPSRFSGSGSGTDFTLTISSLQPEDVATYYCQNHNSVPLTFGGGTKVEIKR"

# Source: US20250049896A1 (Regeneron, published 2025)
